Holding throughout (type): biochemical
For data set [1], the target named is T1, Cath E (Homo sapiens, UniProt P14091).
T1 sequence (P14091 54-396): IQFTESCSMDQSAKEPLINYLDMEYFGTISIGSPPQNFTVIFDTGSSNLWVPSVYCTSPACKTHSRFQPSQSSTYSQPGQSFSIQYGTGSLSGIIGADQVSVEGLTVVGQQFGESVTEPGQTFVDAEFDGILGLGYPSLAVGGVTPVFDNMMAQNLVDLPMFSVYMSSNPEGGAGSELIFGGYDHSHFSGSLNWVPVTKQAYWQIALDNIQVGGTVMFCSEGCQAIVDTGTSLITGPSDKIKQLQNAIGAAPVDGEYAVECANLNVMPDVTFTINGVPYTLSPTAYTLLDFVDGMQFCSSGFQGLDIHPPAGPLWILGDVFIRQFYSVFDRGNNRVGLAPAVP
The experiment in a line: Enzyme digestion, fragments by RP-HPLC and ESI-MS (Cath E). Set-up: purchased Calbiochem, EMD Bioscience (Gibbstown, N.J.). The following applies: excess Cath E, 37° C., 3 hours. The method, then: Substrate e was subjected to aspartic peptidase digestion using Cath E and Cath D. Fluorogenic substrate e (10 μL, 100 μM) was incubated at 37° C. for 3 hours with excess Cath E or Cath D (˜119 pmol) in 100 μL, of 50 mM sodium acetate buffer (pH 4) containing 150 mM NaCl. The resulting digestion fragments were analyzed by the aforementioned analytical RP-HPLC and ESI-MS.

For data set [2], the target named is T2, Cath D (Homo sapiens, UniProt P07339). The experiment in a line: Enzyme digestion, fragments by RP-HPLC and ESI-MS (Cath D). The following applies: high dose of Cath D, overnight hydrolysis. The method, then: Substrate e was subjected to aspartic peptidase digestion using Cath E and Cath D. […] The resulting digestion fragments were analyzed by the aforementioned analytical RP-HPLC and ESI-MS.

In a further data set the target is T3, Cath S (Homo sapiens, UniProt P25774).
T3 construct: purchased Calbiochem, EMD Bioscience (Gibbstown, N.J.)
Kind of data set: FRET hydrolysis of substrate e by Cath S. The following applies: 90 minutes, pH 6.5. The method, then:
(§1) The catalytic selectivity of Cath E and Cath D was determined fluorometrically by FRET-based hydrolysis of intramolecularly quenched peptide substrates a-e. Fluorogenic substrates a-e (10 μL, 200 μM) were incubated with 23 pmol of Cath E or Cath D in 50 mM sodium acetate buffer, pH 4, containing 150 mM NaCl, and the total volume was brought to 100 μL, using the same buffer. Cath S and Cath B were pre-activated by incubation with 100 mM sodium acetate buffer solution, pH 6.5, containing 5 mM DTT and 5 mM EDTA for 5 minutes. Cath S and Cath B (23 pmol) were incubated with 10 μL, of 200 μM fluorogenic substrate e at 100 mM sodium acetate buffer solution, pH6.5, containing 5 mM DTT and 5 mM EDTA, and the total volume was brought to 100 μL, using the same buffer. All assays were performed in triplicate in 96 well black walls, clear-bottom plates (Corning, N.Y.). The change in the fluorescence intensity was monitored over time using SpectraMax.M2^e fluorescence spectrophotometer (Molecular Devices; Sunnyvale, Calif.) at excitation wavelength (λex) of 340 nm and emission wavelength (λem) of 405 nm at 37° C. Control experiments were performed simultaneously by replacing the enzyme with assay buffer.

The next data set has as its target T4, Cath B (Homo sapiens, UniProt P07858).
T4 construct: purchased Calbiochem, EMD Bioscience (Gibbstown, N.J.)
The experiment in a line: FRET hydrolysis of substrate e by Cath B. The conditions noted are these: 90 minutes, pH 6.5. The method, then:
as §1

For data set [3], the target named is T1, Cath E. Kind of data set: FRET hydrolysis of quenched substrates a-e by Cath E. Set-up: purchased Calbiochem, EMD Bioscience (Gibbstown, N.J.). The following applies: for time to saturation of fluorescence on activation by Cath E: 23 pmol Cath E. How it is done:
as §1

For data set [4], the target named is T2, Cath D. Kind of data set: FRET hydrolysis of quenched substrates a-e by Cath D. The following applies: compared among substrates a-e. How it is done:
as §1

Data set [5] addresses T1, Cath E. The experiment in a line: Reported specificity constants of Cath E for various substrates. Set-up: purchased Calbiochem, EMD Bioscience (Gibbstown, N.J.). The following applies: sequence 3 vs sequence 2. From the text: Table 4 compiles the reported specificity constant (Kcat/Km) of Cath E and Cath D using various substrates including peptide substrate e. […] The specificity constant of Cath E for substrate e represents one of the highest reported Kcat/Km values.

Substrate in data set [6]: COc1ccc2c(CC(=O)N[C@@H](C)C(=O)NCC(=O)N[C@@H](Cc3ccccc3)C(=O)N[C@@H](CO)C(=O)N[C@@H](CC(C)C)C(=O)N3CCC[C@H]3C(=O)N[C@@H](C)C(=O)N[C@@H](CCCCNc3ccc([N+](=O)[O-])cc3[N+](=O)[O-])C(=O)N[C@H](CCCNC(=N)N)C(N)=O)cc(=O)oc2c1
The experiment in a line: Kinetic parameters of substrate e hydrolysis by Cath E. The conditions noted are these: other: Cath E 6.8 nM, pH 4.0, 10 minutes, 37° C., Woolf transformation. How it is done: The initial rates of substrate e hydrolysis by Cath E were monitored using a fluorescence plate-reader. Hydrolysis of different substrate e concentrations, 10, 20, 40 and 60 μM, was performed at pH 4 in 50 mM sodium acetate buffer containing 150 mM NaCl. Cath E with various concentrations, 2.27, 4.55, 6.82 nM, were incubated with substrate e and the changes in the fluorescence intensities were monitored for 10 minutes. The substrate e hydrolysis was determined by integrating the fluorescence intensity, and plotted by the amount of the hydrolyzed substrate e over time.
The initial velocities of the hydrolysis reactions were measured between 0 and 10 minutes using several concentrations of substrate e including: 5, 10, 20, 40, 60, 80, 100 μM. All of the used substrate e concentrations were much higher than the concentrations of enzyme (2.3, 4.5 and 6.8 nM). To measure the initial rates of the substrate e proteolysis and to determine Michaelis-Menten kinetic parameters Vmax and Km of the Cath E and Cath D, the Michaelis-Menten equation was transformed using the Woolf kinetic transformation [S/v=(S/Vmax)+(Km/Vmax)]. The initial velocity was calculated from the slope during the linear phase of the reaction and S/Vplotted versus substrate e concentration. The graph representation gave straight lines and Vmax and Km were calculated by the linear regression of the line to obtain the slope and intercept. The turnover number of Cath E enzyme (Kcat) was calculated using the equation Kcat=Vmax/[Cath E], where [Cath E] represents the Cath E concentration in μM and Vmax is the maximum velocity in μM S-1. All the reactions and measurements were carried out in 50 mM sodium acetate buffers (pH 4.0) using the aforementioned setting.

Non-standard residues stand in square brackets, D forms with d. Residues, ends and D or L forms follow the SMILES beside them. *: point of attachment. Dnp = O=[N+]([O-])c1ccc(*)c([N+](=O)[O-])c1; Mca = COc1ccc2c(CC(=O)*)cc(=O)oc2c1 Bounds are passed on as bounds.

T2 sequence (P07339 65-412): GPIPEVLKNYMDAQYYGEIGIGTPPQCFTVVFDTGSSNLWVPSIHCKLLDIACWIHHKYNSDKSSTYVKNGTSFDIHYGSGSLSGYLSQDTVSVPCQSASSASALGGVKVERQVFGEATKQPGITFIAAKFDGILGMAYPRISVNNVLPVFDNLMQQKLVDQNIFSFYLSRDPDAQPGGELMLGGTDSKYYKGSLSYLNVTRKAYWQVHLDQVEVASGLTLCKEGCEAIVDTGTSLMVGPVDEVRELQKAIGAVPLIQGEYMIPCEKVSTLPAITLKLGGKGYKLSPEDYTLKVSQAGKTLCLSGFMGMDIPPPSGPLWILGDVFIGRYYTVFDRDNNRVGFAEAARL
T3 sequence (P25774 115-331): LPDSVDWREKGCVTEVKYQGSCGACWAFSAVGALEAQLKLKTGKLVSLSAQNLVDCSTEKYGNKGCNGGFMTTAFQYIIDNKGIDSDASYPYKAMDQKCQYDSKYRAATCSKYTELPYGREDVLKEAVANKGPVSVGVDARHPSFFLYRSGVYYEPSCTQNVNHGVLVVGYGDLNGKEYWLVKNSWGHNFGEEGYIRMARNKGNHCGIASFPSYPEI

With `COc1ccc2c(CC(=O)N[C@@H](C)C(=O)NCC(=O)N[C@@H](Cc3ccccc3)C(=O)N[C@@H](CO)C(=O)N[C@@H](CC(C)C)C(=O)N3CCC[C@H]3C(=O)N[C@@H](C)C(=O)N[C@@H](CCCCNc3ccc([N+](=O)[O-])cc3[N+](=O)[O-])C(=O)N[C@H](CCCNC(=N)N)C(N)=O)cc(=O)oc2c1` [Substrate e, Mca-Ala-Gly-Phe-Ser-Leu**Pro-Ala-Lys(Dnp)-DArg-CONH2] (Mca-AGFSLPAK(Dnp)[dR]-NH2), the cleavage site result on Cath E [1] is “exclusively between Leu^5 and Pro^6”. Also, the cleavage sites result at Cath D [2] was “two minor cleavage sites”. Besides, the “fluorescent signal increase relative to that observed with Cath E” value on Cath S and on Cath B was “less than 15%” throughout. In addition, on Cath E [3] (200 μM substrate, pH 4.0), the “time to saturation of fluorescence on activation by Cath E” value was no more than 10 min. Besides, the “net fluorescence signal ratio (Cath E/Cath D)” value at Cath E [3] (1 minute / initial time point, 200 μM substrate, 23 pmol enzyme, pH 4.0) amounted to 265 fold.
For “Mca-Ala-Gly-Phe-Ser-Leu**Gly-Pro-Lys(Dnp)-DArg-CONH2 (Mca-AGFSLGPK(Dnp)[dR]-NH2; SMILES COc1ccc2c(CC(=O)N[C@@H](C)C(=O)NCC(=O)N[C@@H](Cc3ccccc3)C(=O)N[C@@H](CO)C(=O)N[C@@H](CC(C)C)C(=O)NCC(=O)N3CCC[C@H]3C(=O)N[C@@H](CCCCNc3ccc([N+](=O)[O-])cc3[N+](=O)[O-])C(=O)N[C@H](CCCNC(=N)N)C(N)=O)cc(=O)oc2c1) [Substrate d]”, the “time to saturation of fluorescence on activation by Cath E” value with Cath E [3] (200 μM substrate, pH 4.0) was “did not reach saturation within the monitored period”.
As to “Mca-Gly-Ser-Pro-Ala-Phe**Leu-Ala-Lys(Dnp)-DArg-CONH2 (Mca-GSPAFLAK(Dnp)[dR]-NH2; SMILES COc1ccc2c(CC(=O)NCC(=O)N[C@@H](CO)C(=O)N3CCC[C@H]3C(=O)N[C@@H](C)C(=O)N[C@@H](Cc3ccccc3)C(=O)N[C@@H](CC(C)C)C(=O)N[C@@H](C)C(=O)N[C@@H](CCCCNc3ccc([N+](=O)[O-])cc3[N+](=O)[O-])C(=O)N[C@H](CCCNC(=N)N)C(N)=O)cc(=O)oc2c1) [Substrate a]”, the “fluorescence increase / hydrolysis upon incubation with Cath D” value in the data set with Cath D [4] is “the highest among all investigated substrates”. Moreover, the “Kcat/Km for Cath E relative to sequence 2” value in the data set with Cath E [5] is “around 16 fold”. Further, the “fluorescence increase upon incubation with Cath E” value with Cath E [3] (compared among substrates a-e) is “the fastest increase and the highest fluorescence signal among all investigated substrates”.

B1: Cath E (Homo sapiens) (protein)
chain: IQFTESCSMDQSAKEPLINYLDMEYFGTISIGSPPQNFTVIFDTGSSNLWVPSVYCTSPACKTHSRFQPSQSSTYSQPGQSFSIQYGTGSLSGIIGADQVSVEGLTVVGQQFGESVTEPGQTFVDAEFDGILGLGYPSLAVGGVTPVFDNMMAQNLVDLPMFSVYMSSNPEGGAGSELIFGGYDHSHFSGSLNWVPVTKQAYWQIALDNIQVGGTVMFCSEGCQAIVDTGTSLITGPSDKIKQLQNAIGAAPVDGEYAVECANLNVMPDVTFTINGVPYTLSPTAYTLLDFVDGMQFCSSGFQGLDIHPPAGPLWILGDVFIRQFYSVFDRGNNRVGLAPAVP
notes: purchased Calbiochem, EMD Bioscience (Gibbstown, N.J.)
Regarding B1, in data set [6], the Km amounted to 19.37 µM, the Vmax stood at 2.2 μM S^−1, the kcat came out at 322.5 S^−1 and the kcat/Km amounted to 16.7 μM^−1 S^−1.

These data come from patent US9265844B2, “Protease degradable polypeptides and uses thereof” (THE METHODIST HOSPITAL SYSTEM, priority 2010, dated 2016).
